Consider two molecules from patent publication US20090022663A1 (published 2009).

The assay concerns the target T1, 161P2F10B variant 1 (human 161P2F10B), on the cell surface (human, UniProt O14638 1-875).
T1 construct: Cell surface pyrophosphatase/phosphodiesterase; also called 161P2F10B v.1; CD203c
Description: flow cytometry on cells or ELISA on immobilized 161P2F10B.

B1: H16-1.61.1 (antibody, V domains shown)
VH: EVQLVESGGGVVQPGRSLRLSCAASGFTFSSYGMHWVRQAPGKGLEWVAVIWYDGSNKYYADSVKGRFTISRDNSKNTLYLQMNSLRAEDTAVYYCARSRITIFGVVHYGMDVWGQGTTVTVSS
VL: DTQLTQSPSSLSASVGDRVTITCRASQSISSYLNWYQLKPGKAPKLLIYAASSLESGVPSRFSGSESGTDFTLTISSLQPEDFATYYCQQSYNSPITFGPGTKVDIKR
B1: the binding result is listed as “binds”.

B2: H16-1.80 (antibody, V domains shown)
VH: QVQLQESGPGLVKPSETLSLTCTVSGGSISSYYWSWIRQPPGKGLEWIGYVYFSGSTNYNPSLKSRVTISVDTSKNQFSLKLSSVTAADTAVYYCARATRDYYYYGMDVWGQGTTVTVSS
VL: DIQMTQSPSSLSASVGDRVTITCRTSHDISNYLNWYQQKPGKAPKLLIYAASSLQSGVPSRFSGSRSGTDFTLTISSLQPEDFATYYCQQTYSTLFTFGPGTKVDIKR
notes: also called Ha16-1.80; HA16-1.80
Consider B2, for which the binding result is “binds”.
